The values that follow come from patent US20180369355A1 (TEXAS A AND M UNIVERSITY SYSTEM, published 2018).

Where no end group is shown, it is not given here.

First the molecules themselves.
T1: Fg D-fragment (UniProt P02671 130-216; P02675 164-491; P02679 114-437)
T1 construct: domain: D-fragment; also called D-domain
T1 sequence 1: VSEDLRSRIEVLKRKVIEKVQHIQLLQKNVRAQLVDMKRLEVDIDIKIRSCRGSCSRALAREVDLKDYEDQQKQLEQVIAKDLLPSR
T1 sequence 2: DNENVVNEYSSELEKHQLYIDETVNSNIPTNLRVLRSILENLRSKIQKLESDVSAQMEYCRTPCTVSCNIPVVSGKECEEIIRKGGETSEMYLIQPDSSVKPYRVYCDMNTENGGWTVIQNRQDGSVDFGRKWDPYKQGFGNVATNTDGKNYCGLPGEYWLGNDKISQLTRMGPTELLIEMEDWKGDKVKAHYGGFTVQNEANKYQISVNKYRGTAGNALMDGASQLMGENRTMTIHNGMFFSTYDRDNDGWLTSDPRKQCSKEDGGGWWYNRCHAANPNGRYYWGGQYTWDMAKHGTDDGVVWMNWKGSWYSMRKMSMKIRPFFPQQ
T1 sequence 3: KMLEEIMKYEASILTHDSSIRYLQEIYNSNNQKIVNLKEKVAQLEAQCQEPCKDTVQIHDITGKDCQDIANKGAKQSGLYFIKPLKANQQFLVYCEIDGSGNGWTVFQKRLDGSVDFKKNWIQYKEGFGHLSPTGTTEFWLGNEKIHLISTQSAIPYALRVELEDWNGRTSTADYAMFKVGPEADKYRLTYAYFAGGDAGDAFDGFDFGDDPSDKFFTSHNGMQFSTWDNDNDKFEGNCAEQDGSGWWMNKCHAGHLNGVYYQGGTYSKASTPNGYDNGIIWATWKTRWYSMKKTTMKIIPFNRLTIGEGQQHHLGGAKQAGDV

T2: human fibrinogen (human, UniProt P02671 20-629; P02675 31-491; P02679 27-437)
T2 construct: also called Fg; intact Fg
T2 sequence 1: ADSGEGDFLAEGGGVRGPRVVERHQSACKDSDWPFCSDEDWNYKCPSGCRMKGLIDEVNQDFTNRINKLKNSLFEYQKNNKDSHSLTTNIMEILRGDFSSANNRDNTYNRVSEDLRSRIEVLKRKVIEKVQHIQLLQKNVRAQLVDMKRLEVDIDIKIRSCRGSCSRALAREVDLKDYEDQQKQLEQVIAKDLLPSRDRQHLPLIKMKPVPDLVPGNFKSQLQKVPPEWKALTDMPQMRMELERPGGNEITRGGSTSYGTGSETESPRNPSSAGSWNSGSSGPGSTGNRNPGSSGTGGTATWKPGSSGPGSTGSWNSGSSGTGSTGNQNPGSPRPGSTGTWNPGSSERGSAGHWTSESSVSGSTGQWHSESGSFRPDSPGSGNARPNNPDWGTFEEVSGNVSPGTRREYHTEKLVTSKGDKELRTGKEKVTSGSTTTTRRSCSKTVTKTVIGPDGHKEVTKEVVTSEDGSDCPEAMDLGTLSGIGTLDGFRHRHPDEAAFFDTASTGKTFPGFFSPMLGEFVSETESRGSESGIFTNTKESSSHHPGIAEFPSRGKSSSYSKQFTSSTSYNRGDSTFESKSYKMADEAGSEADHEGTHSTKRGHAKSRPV
T2 sequence 2: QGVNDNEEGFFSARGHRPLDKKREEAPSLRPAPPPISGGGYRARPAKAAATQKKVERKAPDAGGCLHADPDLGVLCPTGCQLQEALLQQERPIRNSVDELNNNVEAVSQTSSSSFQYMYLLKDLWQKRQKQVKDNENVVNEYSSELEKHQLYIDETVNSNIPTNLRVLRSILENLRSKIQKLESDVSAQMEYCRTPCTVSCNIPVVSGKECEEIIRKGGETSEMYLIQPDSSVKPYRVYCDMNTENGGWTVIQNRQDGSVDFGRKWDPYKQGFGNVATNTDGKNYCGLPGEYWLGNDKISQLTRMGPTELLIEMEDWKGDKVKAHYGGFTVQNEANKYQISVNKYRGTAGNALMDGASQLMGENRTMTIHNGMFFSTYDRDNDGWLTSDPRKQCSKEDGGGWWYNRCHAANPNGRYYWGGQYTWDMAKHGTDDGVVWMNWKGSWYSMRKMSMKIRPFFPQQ
T2 sequence 3: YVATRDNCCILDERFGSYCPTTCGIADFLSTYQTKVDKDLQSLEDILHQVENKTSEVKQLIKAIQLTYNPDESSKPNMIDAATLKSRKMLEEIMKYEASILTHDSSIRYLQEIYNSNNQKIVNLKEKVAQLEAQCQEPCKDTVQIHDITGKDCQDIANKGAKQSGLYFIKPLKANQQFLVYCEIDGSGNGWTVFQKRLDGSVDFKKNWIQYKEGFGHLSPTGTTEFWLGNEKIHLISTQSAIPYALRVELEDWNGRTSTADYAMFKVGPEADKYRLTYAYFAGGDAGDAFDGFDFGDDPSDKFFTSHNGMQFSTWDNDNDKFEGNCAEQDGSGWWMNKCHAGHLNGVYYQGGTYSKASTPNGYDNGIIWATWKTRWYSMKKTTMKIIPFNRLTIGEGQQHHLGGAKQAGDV

T3: ClfA370-559 (S. aureus, UniProt Q53653 370-559)
T3 construct: also called recombinant form of N3
T3 sequence: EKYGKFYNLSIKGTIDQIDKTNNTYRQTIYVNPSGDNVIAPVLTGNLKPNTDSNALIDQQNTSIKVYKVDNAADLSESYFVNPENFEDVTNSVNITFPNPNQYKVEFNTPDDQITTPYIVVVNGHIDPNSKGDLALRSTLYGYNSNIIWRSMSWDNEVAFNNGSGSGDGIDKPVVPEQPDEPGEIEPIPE

B1: ClfA221-559 (other)
chain: VAADAPAAGTDITNQLTNVTVGIDSGTTVYPHQAGYVKLNYGFSVPNSAVKGDTFKITVPKELNLNGVTSTAKVPPIMAGDQVLANGVIDSDGNVIYTFTDYVNTKDDVKATLTMPAYIDPENVKKTGNVTLATGIGSTTANKTVLVDYEKYGKFYNLSIKGTIDQIDKTNNTYRQTIYVNPSGDNVIAPVLTGNLKPNTDSNALIDQQNTSIKVYKVDNAADLSESYFVNPENFEDVTNSVNITFPNPNQYKVEFNTPDDQITTPYIVVVNGHIDPNSKGDLALRSTLYGYNSNIIWRSMSWDNEVAFNNGSGSGDGIDKPVVPEQPDEPGEIEPIPE
notes: Recombinant, expressed in E. coli and purified by nickel chelate chromatography; the tag is not described; also called ClfA N2N3; ClfAN2N3
B2: GST-tagged Fg γ-peptide (other)
chain: {GST}-GEGQQHHLGGAKQAGDV
notes: domain: γ-peptide (carboxy terminal of the γ-chain); 'expressed and purified as described earlier'; also called GST-γ-peptide; GST tagged γ-peptide; not shown: GST tag
B3: ClfACC (other)
chain: GTDITNQLTNVTVGIDSGTTVYPHQAGYVKLNYGFSVPNSAVKGDTFKITVPKELNLNGVTSTAKVPPIMAGDQVLANGVIDSDGNVIYTFTDYVNTKCDVKATLTMPAYIDPENVKKTGNVTLATGIGSTTANKTVLVDYEKYGKFYNLSIKGTIDQIDKTNNTYRQTIYVNPSGDNVIAPVLTGNLKPNTDSNALIDQQNTSIKVYKVDNAADLSESYFVNPENFEDVTNSVNITFPNPNQYKVEFNTPDDQITTPYIVVVNGHIDPNSKGDLALRSTLYGYNSNIIWRSMSWDNEVAFNNGSGSGDGIDCPVVP
modifications: engineered disulfide bond between C327 and C541
notes: also called disulfide bond-closed ClfACC; closed form of ClfA N2N3

Experiment [1] deals with ClfA221-559 (S. aureus strain Newman) (UniProt Q53653). The experiment in a line: SPR competition: Tefibazumab (0.1 to 2 µM) mixed with 1 µM ClfA221-559, binding of ClfA221-559 to immobilized Fg D-fragment (Fg-D) is blocked.
The target is the same in experiment [2]. Nature of the experiment: SPR competition: Tefibazumab mixed with 1 µM ClfA221-559, blocked ligand immobilized Fg D-fragment (Fg-D).
The target is the same in experiment [3]. The experiment in a line: SPR competition; 2 µM Tefibazumab with 1 µM ClfA221-559 over captured GST-tagged Fg γ-peptide (competitor: GST-γ-peptide).
The target is the same in experiment [4]. The experiment in a line: SPR competition; Tefibazumab 0.1-2 µM with 1 µM ClfA221-559 over immobilized human Fg (competitor: Fg).
The target is the same in experiment [5]. The experiment in a line: SPR competition: Tefibazumab mixed with 1 µM ClfA221-559, blocked ligand immobilized fibrinogen (Fg).
For experiment [6] the target is unchanged. The experiment in a line: SPR competition; Tefibazumab 0.1-2 µM with 1 µM ClfA221-559 over immobilized Fg D-fragment (competitor: D-fragment).
Experiment [7] shares this target. The experiment in a line: SPR competition; 2 µM Tefibazumab with 1 µM ClfA221-559 over immobilized Fg (competitor: Fg).
Experiment [8] shares this target. Nature of the experiment: SPR competition: Tefibazumab (0.1 to 2 µM) mixed with 1 µM ClfA221-559, binding of ClfA221-559 to immobilized fibrinogen (Fg) is blocked.
Experiment [9] has the same target. Nature of the experiment: SPR competition; 2 µM Tefibazumab with 1 µM ClfA221-559 over immobilized D-fragment (competitor: D-fragment).
The target in experiment [10] is T1, Fg D-fragment. Nature of the experiment: SPR; immobilized Fg D-fragment against GST-γ-peptide. On the technique in general: Surface plasmon resonance follows binding to a sensor surface in real time, without labels.
The target of experiment [11] is T2, human fibrinogen. Nature of the experiment: SPR; ClfA221-559 over immobilized intact Fg; immobilized intact Fg.
Experiment [12] has as its target T2, human fibrinogen. Nature of the experiment: SPR; immobilized Fg against GST-γ-peptide.
The target in experiment [13] is T1, Fg D-fragment. Nature of the experiment: SPR; ClfA221-559 over immobilized Fg D-fragment; immobilized Fg D-fragment.
In the experiment “ClfA221-559” the target is B1. Nature of the experiment: SPR (Biacore), drawn table Ligand/analyte: GST-γ-peptide on the surface, ClfA221-559 as analyte.
In another experiment the target is T3, ClfA370-559. The experiment in a line: SPR (Biacore), drawn table Ligand/analyte: GST-γ-peptide on the surface, ClfA N3 domain (ClfA370-559) as analyte.
The target in experiment [14] is T2, human fibrinogen. The experiment in a line: ITC, ClfACC titrated into fibrinogen in the cell; OneSites fit box, unit not given. In general terms: ITC needs no label: the signal is the heat of the interaction.
Experiment [15] has as its target T2, human fibrinogen. The experiment in a line: ITC; full-length Fg against the synthetic C-terminal γ-chain peptide.
Experiment [16] deals with T2, human fibrinogen. Nature of the experiment: ITC, ClfACC titrated into fibrinogen in the cell; OneSites fit box.
The target in experiment [17] is T2, human fibrinogen. Nature of the experiment: ITC; full-length Fg in the cell, ClfACC titrated in, 30 °C; full-length Fg in the cell, ClfACC titrated in.

By IC50 is commonly meant the point on the concentration scale where inhibition reaches its midpoint. For Tefibazumab (antibody), the IC50 in experiment [1] stood at 29.6 nM; in experiment [4], 30 nM; in experiment [6], 30 nM; in [8] it was 30.2 nM. Besides, the IC50 (read off the curve) in experiment [2] and in experiment [5] was 300 nM throughout. Further, the figures for the percent inhibition in experiment [3], in [7] and in experiment [9] were 25%, 60% and 70%, respectively.
The term Kd denotes a measure of binding affinity in units of concentration. Read a low Kd as a tighter complex. With B1, the “fold difference in KD against the γ-peptide” value with Fg D-fragment [10] and with human fibrinogen [12] was 4 to 7 fold in each case. Further, the figures for the Kd in the experiment with human fibrinogen [11] and with Fg D-fragment [13] were 980 nM and 680 nM, respectively.
With B2, the Kd with ClfA221-559 is 4.3 µM; with ClfA370-559 it was 54 µM.
Molecule B3 yielded a ΔH with human fibrinogen [14] of -13300. For the same molecule, in the experiment with human fibrinogen [15], the “fold higher affinity against the γ-chain peptide” value is 30 fold. In the experiment with human fibrinogen [16], this molecule had an N of 1.57. This molecule registered a Kd in the experiment with human fibrinogen [17] of 300 nM.
